Measured values reported in publication PMC9287719.
Read-outs that look alike come from different tables or passages of the source. Values belong to the substance of their own block, whether it stands above or below them.

How the values were obtained:
[1] = target: Recombinant FcγRIIb with C-terminus Biotin (human) (UniProt P31994)
[2] = target: Recombinant FcγRIIa (R131) with C-terminus Biotin (human) (UniProt P12318)
[3] = target: Recombinant FcγRIIa (H131) with C-terminus Biotin (human) (UniProt P12318)
[4] = target: Recombinant FcγRIIIa (V158) with C-terminus Biotin (human)
Target sequence in this assay (P08637 17-208 F176V): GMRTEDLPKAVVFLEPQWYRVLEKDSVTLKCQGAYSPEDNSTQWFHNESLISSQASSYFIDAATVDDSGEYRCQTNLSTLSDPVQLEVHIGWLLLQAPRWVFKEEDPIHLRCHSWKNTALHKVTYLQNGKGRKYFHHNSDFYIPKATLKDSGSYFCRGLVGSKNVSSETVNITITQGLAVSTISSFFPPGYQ

[5] = target: Recombinant FcγRIIIa (F158) with C-terminus Biotin (human) (UniProt P08637)
[6] = target: Recombinant FcγRIIIa (V158) with C-terminus Biotin (human); remark: listed apart in the source
Target sequence in this assay (P08637 17-208 F176V): as above

[7] = target: Recombinant FcγRIIa (H131) with C-terminus Biotin (human) (UniProt P12318); remark: listed apart in the source
[8] = target: Recombinant FcγRI with C-terminus Biotin (human) (UniProt P12314)
[9] = target: Recombinant FcγRIIa (R131) with C-terminus Biotin (human) (UniProt P12318); remark: listed apart in the source
[10] = target: Recombinant FcγRIIa (H131) with C-terminus Biotin (human) (UniProt P12318); remark: listed apart in the source
[11] = target: Recombinant FcγRIIb with C-terminus Biotin (human) (UniProt P31994); experiment: other; qualitative only
[12] = target: Recombinant FcγRI with C-terminus Biotin (human) (UniProt P12314); remark: listed apart in the source
[13] = target: Recombinant FcγRIIa (R131) with C-terminus Biotin (human) (UniProt P12318); remark: listed apart in the source
[14] = target: Recombinant FcγRIIa (R131) with C-terminus Biotin (human); experiment: split reporter (BiFC, NanoBiT); homogeneous competition assay in solution for FcγRIIa and FcγRIIIa variants: sample competes with IgG-LgBiT tracer for FcγR-Biotin mixed 1:1 with Streptavidin-SmBiT; 30–60 min; PBS with 10% superblock; IC50 equivalent to apparent affinity (KD)
[15] = target: Recombinant FcγRIIa (H131) with C-terminus Biotin (human) (UniProt P12318); experiment: as above
[16] = target: Recombinant FcγRIIIa (V158) with C-terminus Biotin (human); experiment: as above
[17] = target: Recombinant FcγRIIIa (F158) with C-terminus Biotin (human) (UniProt P08637); experiment: as above

Sequence of Recombinant FcγRIIa (H131) with C-terminus Biotin (human) (P12318 34-217): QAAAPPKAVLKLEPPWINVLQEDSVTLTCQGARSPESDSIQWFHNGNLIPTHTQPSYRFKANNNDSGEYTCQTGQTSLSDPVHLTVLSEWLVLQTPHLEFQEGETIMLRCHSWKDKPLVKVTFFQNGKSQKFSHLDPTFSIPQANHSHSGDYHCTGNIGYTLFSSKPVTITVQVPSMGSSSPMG
Sequence of Recombinant FcγRIIa (R131) with C-terminus Biotin (human) (UniProt P12318) (P12318 34-217 H167R): as the sequence (P12318 34-217) above, with H134R counted along it
Sequence of Human IgG4 (P01861 whole entry, looked up): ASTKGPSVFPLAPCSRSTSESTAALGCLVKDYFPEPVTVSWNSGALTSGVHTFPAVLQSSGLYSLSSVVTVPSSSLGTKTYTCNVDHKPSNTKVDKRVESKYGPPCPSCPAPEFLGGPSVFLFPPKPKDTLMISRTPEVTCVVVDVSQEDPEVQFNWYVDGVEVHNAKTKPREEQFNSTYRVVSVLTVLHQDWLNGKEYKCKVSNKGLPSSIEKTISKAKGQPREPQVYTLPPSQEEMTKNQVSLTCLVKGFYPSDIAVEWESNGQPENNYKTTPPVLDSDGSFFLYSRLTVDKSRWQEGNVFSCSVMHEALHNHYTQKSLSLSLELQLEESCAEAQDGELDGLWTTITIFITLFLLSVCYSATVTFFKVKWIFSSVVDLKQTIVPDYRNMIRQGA
Sequence of Human IgG2 (P01859 whole entry, looked up): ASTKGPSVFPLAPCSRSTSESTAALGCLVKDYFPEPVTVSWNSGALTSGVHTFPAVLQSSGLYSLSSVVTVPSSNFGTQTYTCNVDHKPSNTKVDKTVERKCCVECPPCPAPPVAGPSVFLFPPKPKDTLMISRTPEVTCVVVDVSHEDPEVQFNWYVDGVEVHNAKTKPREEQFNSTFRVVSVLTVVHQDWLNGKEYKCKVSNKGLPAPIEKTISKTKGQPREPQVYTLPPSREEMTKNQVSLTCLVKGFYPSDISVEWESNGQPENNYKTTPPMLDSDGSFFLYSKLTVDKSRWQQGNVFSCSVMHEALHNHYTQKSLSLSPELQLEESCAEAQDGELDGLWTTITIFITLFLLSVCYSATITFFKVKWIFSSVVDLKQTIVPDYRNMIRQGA
Sequence of Recombinant FcγRI with C-terminus Biotin (human) (P12314 16-292): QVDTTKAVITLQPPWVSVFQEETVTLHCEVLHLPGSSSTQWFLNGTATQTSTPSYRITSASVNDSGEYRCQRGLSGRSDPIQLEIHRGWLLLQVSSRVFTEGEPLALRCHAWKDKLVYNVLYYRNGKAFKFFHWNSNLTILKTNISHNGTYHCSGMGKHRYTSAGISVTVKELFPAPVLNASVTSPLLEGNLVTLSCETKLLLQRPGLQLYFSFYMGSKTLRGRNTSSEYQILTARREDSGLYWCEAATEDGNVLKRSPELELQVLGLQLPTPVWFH
Sequence of Recombinant FcγRIIIa (F158) with C-terminus Biotin (human) (P08637 17-208): as the sequence (P08637 17-208 F176V) above, with V160F counted along it
Sequence of Recombinant FcγRIIb with C-terminus Biotin (human) (P31994 43-217): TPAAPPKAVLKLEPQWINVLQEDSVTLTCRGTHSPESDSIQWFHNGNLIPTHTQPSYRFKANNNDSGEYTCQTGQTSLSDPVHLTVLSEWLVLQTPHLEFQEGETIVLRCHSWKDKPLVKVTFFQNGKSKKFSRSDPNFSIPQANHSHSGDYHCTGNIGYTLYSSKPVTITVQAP

- IC50 [1]: 1120 nM
- IC50 [2]: 178 nM
- IC50 [3]: 55.8 nM
- IC50 [4]: 12.5 nM
- IC50 [5]: 95.5 nM
Substance: Gammagard (from UniProt P01857)

- IC50 [6]: 2040 nM
- IC50 [7]: 77.1 nM
- IC50 [8]: 29.4 nM
- IC50 [9]: 519 nM
Substance: Human IgG2 (from UniProt P01859)

- IC50 [10]: 102 nM
- IC50 [11]: 573 nM
- IC50 [12]: 1.07 nM
- IC50 [13]: 128 nM
Substance: Human IgG4 (from UniProt P01861)

- IC50 [14]: 42.6 nM
- IC50 [15]: 11.3 nM
- IC50 [16]: 18.4 nM
- IC50 [17]: 107 nM
Substance: Human IgG (human polyclonal IgG) (antibody)
